For test [1], the target named is T1, human GITR-Fc (human, UniProt Q9Y5U5 26-161).
T1 construct: Recombinant GITR-Fc; also called hGITR-Fc; hGITR; not shown: Fc part
T1 sequence (looked up): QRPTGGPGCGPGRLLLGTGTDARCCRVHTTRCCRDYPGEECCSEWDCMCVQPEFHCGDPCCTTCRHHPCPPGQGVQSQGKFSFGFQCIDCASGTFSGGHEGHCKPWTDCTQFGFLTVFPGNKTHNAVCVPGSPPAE
As to the kind of experiment: direct titration ELISA on coated human GITR-Fc, IgG1 0.001-1 µg/ml, OD 450 nm. How it is done:
(§1) To coat Greiner Bio-One High bind ELISA plates, target proteins were diluted to 1 μg/ml in carbonate buffer and added at 100 μl per well, at 4° C., o/n. Coated plates were washed 3× with PBS pH7.4, blocked with 1% BSA in PBS (380 μl/well) for 1 hr at RT, then washed 3× with PBS-Tween 20 (PBST). GITR antibodies (100 μl/well; diluted in PBST) were then added and then incubated 1 hr at RT. Plates were then washed 3× with PBST and goat anti-human kappa chain-HRP added (100 μl/well) at RT, for 1 hr. Plates were then washed 3× with PBST and twice with PBS before the addition of 100 μl TMB per well. Reactions were stopped by adding 100 μl 2M H₂SO₄/well and OD was read on a plate reader at 450 nm. IgG binding analysis via ELISA on negatively charged biomolecular surfaces were performed as previously described (see Mouquet et al., 2010, Nature 467: 591-595).
(§2) Retention of GITR-binding function in the purified IgG1 proteins was first examined by titration in direct binding ELISA against human GITR-Fc. […] Importantly, the >100-fold loss of binding function in the VH2 IgG family further illustrated that the HCDR1 could not be fully germ-lined a priori to match the native sequence of the human germline HCDR1 found in the framework used for grafting (IGHV3-7).
Background: In an ELISA, binding on a coated surface is turned into a signal by an enzyme label.

Test [2] deals with T1, human GITR-Fc. As to the kind of experiment: direct titration ELISA, coated human GITR-Fc, IgG1. As to the method:
as §1, §2

B1: VH1/VL3 IgG1 (antibody, V domains shown)
VH: QVTLRESGPALVKPTQTLTLTCTFSGFSLSTSGMGVGWIRQPPGKALEWLAHIWWDDDKYYNPSLKSRLTISKDTSKNQVVLTMTNMDPVDTATYYCARTRRYFPFAYWGQGTLVTVSS
VL: DIQMTQSPSSLSASVGDRVTITCRASQNVGTNVAWYQQKPGKAPKLLIYSASYRYSGVPSRFSGSGSGTDFTLTISSLQPEDFATYYCQQYNTDPLTFGGGTKVEIK
notes: Human IgG1; also called VH1 family
For B1, the binding result in test [1] is reported as “binds”.

B2: VH2/VL3 IgG1 (antibody, V domains shown)
VH: EVQLVESGGGLVQPGGSLRLSCAASGFTFSSYWMSWVRQAPGKGLEWLAHIWWDDDKYYVDSVKGRFTISRDNAKNSLYLQMNSLRAEDTAVYYCARTRRYFPFAYWGQGTLVTVSS
VL: DIQMTQSPSSLSASVGDRVTITCRASQNVGTNVAWYQQKPGKAPKLLIYSASYRYSGVPSRFSGSGSGTDFTLTISSLQPEDFATYYCQQYNTDPLTFGGGTKVEIK
notes: Human IgG1; also called VH2 family
B2: the “fold loss of binding function (against mVH/mVL IgG)” value (“fold loss … (against mVH/mVL IgG)” below) in test [2] was over 100 fold.

B3: MH-1 IgG1 (antibody, V domains shown)
VH: EVQLVESGGGLVQPGGSLRLSCAASGFSLSTSGMGMSWVRQAPGKGLEWVAHIWWDDEKYYVDSVKGRFTISRDNAKNSLYLQMNSLRAEDTAVYYCARTRQYFPFAYWGQGTLVTVSS
VL: EIVLTQSPATLSLSPGERATLSCRASQSVGSNLAWYQQKPGQAPRLLIYSASYRATGIPARFSGSGSGTDFTLTISSLEPEDFAVYYCQQYSTDPLTFGGGTKVEIK
notes: Human IgG1, designer clone; built as m28; also called Clone MH-1
Regarding B3, the binding result in test [2] is listed as “binds”.

B4: VH3/VL3 IgG1 (antibody, V domains shown)
VH: EVQLVESGGGLVQPGGSLRLSCAASGFSLSTSGMGVGWVRQAPGKGLEWLAHIWWDDDKYYVDSVKGRFTISRDNAKNSLYLQMNSLRAEDTAVYYCARTRRYFPFAYWGQGTLVTVSS
VL: DIQMTQSPSSLSASVGDRVTITCRASQNVGTNVAWYQQKPGKAPKLLIYSASYRYSGVPSRFSGSGSGTDFTLTISSLQPEDFATYYCQQYNTDPLTFGGGTKVEIK
notes: Human IgG1; also called VH3 family
Take B4: the binding result in test [1] is on record as “binds”.

B5: MH-4 IgG1 (antibody, V domains shown)
VH: EVQLVESGGGLVQPGGSLRLSCAASGFSLSTSGYGMSWVRQAPGKGLEWVAHIWWDDEKYYVDSVKGRFTISRDNAKNSLYLQMNSLRAEDTAVYYCARTRQYFPFAYWGQGTLVTVSS
VL: EIVLTQSPATLSLSPGERATLSCRASQSVGSNVAWYQQKPGQAPRLLIYSASYRATGIPARFSGSGSGTDFTLTISSLEPEDFAVYYCQQYSTDPLTFGGGTKVEIK
notes: Human IgG1, designer clone; built as m28; also called Clone MH-4
B5: the binding result in test [2] is “binds”.

B6: MH-2 IgG1 (antibody, V domains shown)
VH: EVQLVESGGGLVQPGGSLRLSCAASGFSLSTSGYGVSWVRQAPGKGLEWVAHIWWDDEKYYVDSVKGRFTISRDNAKNSLYLQMNSLRAEDTAVYYCARTRQYFPFAYWGQGTLVTVSS
VL: EIVLTQSPATLSLSPGERATLSCRASQSVGSNLAWYQQKPGQAPRLLIYSASYRATGIPARFSGSGSGTDFTLTISSLEPEDFAVYYCQQYSTDPLTFGGGTKVEIK
notes: Human IgG1, designer clone; built as m28; also called Clone MH-2
As for B6, the binding result in test [2] is “binds”.

B7: MH-3 IgG1 (antibody, V domains shown)
VH: EVQLVESGGGLVQPGGSLRLSCAASGFSLSTSGYGMSWVRQAPGKGLEWVAHIWWDDEKYYVDSVKGRFTISRDNAKNSLYLQMNSLRAEDTAVYYCARTRQYFPFAYWGQGTLVTVSS
VL: EIVLTQSPATLSLSPGERATLSCRASQNVGSNLAWYQQKPGQAPRLLIYSASYRATGIPARFSGSGSGTDFTLTISSLEPEDFAVYYCQQYSTDPLTFGGGTKVEIK
notes: Human IgG1, designer clone; built as m28; also called Clone MH-3
As for B7, in test [2], the binding result is recorded as “binds”.

B8: VH4/VL1 IgG1 (antibody, V domains shown)
VH: EVQLVQSGAEVKKPGESLKISCKGSGFSLSTSGMGVGWVRQMPGKGLEWLAHIWWDDDKYYSPSFQGQVTISADKSISTAYLQWSSLKASDTAMYYCARTRRYFPFAYWGQGTLVTVSS
VL: EIVMTQSPATLSVSPGERATLSCKASQNVGTNVAWYQQKPGQAPRLLIYSASYRYSGIPARFSGSGSGTEFTLTISSLQSEDFAVYYCQQYNTDPLTFGGGTKVEIK
notes: Human IgG1; also called VH4 family
With B8, the binding result in test [1] was “binds”.

B9: VH3/VL1 IgG1 (antibody, V domains shown)
VH: EVQLVESGGGLVQPGGSLRLSCAASGFSLSTSGMGVGWVRQAPGKGLEWLAHIWWDDDKYYVDSVKGRFTISRDNAKNSLYLQMNSLRAEDTAVYYCARTRRYFPFAYWGQGTLVTVSS
VL: EIVMTQSPATLSVSPGERATLSCKASQNVGTNVAWYQQKPGQAPRLLIYSASYRYSGIPARFSGSGSGTEFTLTISSLQSEDFAVYYCQQYNTDPLTFGGGTKVEIK
notes: as for B4
As for B9, in test [1], the binding result was “binds”.

B10: VH2/VL1 IgG1 (antibody, V domains shown)
VH: EVQLVESGGGLVQPGGSLRLSCAASGFTFSSYWMSWVRQAPGKGLEWLAHIWWDDDKYYVDSVKGRFTISRDNAKNSLYLQMNSLRAEDTAVYYCARTRRYFPFAYWGQGTLVTVSS
VL: EIVMTQSPATLSVSPGERATLSCKASQNVGTNVAWYQQKPGQAPRLLIYSASYRYSGIPARFSGSGSGTEFTLTISSLQSEDFAVYYCQQYNTDPLTFGGGTKVEIK
notes: Human IgG1; The dash printed in the HCDR1 of VH2 is an alignment gap; also called VH2 family
For B10, the “fold loss … (against mVH/mVL IgG)” value in test [2] was over 100 fold.

B11: VH4/VL3 IgG1 (antibody, V domains shown)
VH: EVQLVQSGAEVKKPGESLKISCKGSGFSLSTSGMGVGWVRQMPGKGLEWLAHIWWDDDKYYSPSFQGQVTISADKSISTAYLQWSSLKASDTAMYYCARTRRYFPFAYWGQGTLVTVSS
VL: DIQMTQSPSSLSASVGDRVTITCRASQNVGTNVAWYQQKPGKAPKLLIYSASYRYSGVPSRFSGSGSGTDFTLTISSLQPEDFATYYCQQYNTDPLTFGGGTKVEIK
notes: as for B8
As to B11, in test [1], the binding result is “binds”.

B12: VH1/VL2 IgG1 (antibody, V domains shown)
VH: QVTLRESGPALVKPTQTLTLTCTFSGFSLSTSGMGVGWIRQPPGKALEWLAHIWWDDDKYYNPSLKSRLTISKDTSKNQVVLTMTNMDPVDTATYYCARTRRYFPFAYWGQGTLVTVSS
VL: EIVLTQSPATLSLSPGERATLSCRASQNVGTNVAWYQQKPGQAPRLLIYSASYRYSGIPARFSGSGSGTDFTLTISSLEPEDFAVYYCQQYNTDPLTFGGGTKVEIK
notes: as for B1
On to B12, for which the binding result in test [1] is on record as “binds”.

B13: VH2/VL2 IgG1 (antibody, V domains shown)
VH: EVQLVESGGGLVQPGGSLRLSCAASGFTFSSYWMSWVRQAPGKGLEWLAHIWWDDDKYYVDSVKGRFTISRDNAKNSLYLQMNSLRAEDTAVYYCARTRRYFPFAYWGQGTLVTVSS
VL: EIVLTQSPATLSLSPGERATLSCRASQNVGTNVAWYQQKPGQAPRLLIYSASYRYSGIPARFSGSGSGTDFTLTISSLEPEDFAVYYCQQYNTDPLTFGGGTKVEIK
notes: as for B2
Consider B13, for which the “fold loss … (against mVH/mVL IgG)” value in test [2] was over 100 fold.

B14: VH4/VL2 IgG1 (antibody, V domains shown)
VH: EVQLVQSGAEVKKPGESLKISCKGSGFSLSTSGMGVGWVRQMPGKGLEWLAHIWWDDDKYYSPSFQGQVTISADKSISTAYLQWSSLKASDTAMYYCARTRRYFPFAYWGQGTLVTVSS
VL: EIVLTQSPATLSLSPGERATLSCRASQNVGTNVAWYQQKPGQAPRLLIYSASYRYSGIPARFSGSGSGTDFTLTISSLEPEDFAVYYCQQYNTDPLTFGGGTKVEIK
notes: as for B8
With B14, the binding result in test [1] is given as “binds”.

These data come from patent US20190375846A1 (ULTRAHUMAN ONE, published 2019).
